Experimental data: patent publication US20240408227A1

Molecular target: recombinant human TfR1 (human) (UniProt P02786)
Assay: SPR array (Carterra LSA), IgG captured, TfR as analyte, 25 C

recombinant human TfR1 (human), sequence (P02786 89-760 limits assumed): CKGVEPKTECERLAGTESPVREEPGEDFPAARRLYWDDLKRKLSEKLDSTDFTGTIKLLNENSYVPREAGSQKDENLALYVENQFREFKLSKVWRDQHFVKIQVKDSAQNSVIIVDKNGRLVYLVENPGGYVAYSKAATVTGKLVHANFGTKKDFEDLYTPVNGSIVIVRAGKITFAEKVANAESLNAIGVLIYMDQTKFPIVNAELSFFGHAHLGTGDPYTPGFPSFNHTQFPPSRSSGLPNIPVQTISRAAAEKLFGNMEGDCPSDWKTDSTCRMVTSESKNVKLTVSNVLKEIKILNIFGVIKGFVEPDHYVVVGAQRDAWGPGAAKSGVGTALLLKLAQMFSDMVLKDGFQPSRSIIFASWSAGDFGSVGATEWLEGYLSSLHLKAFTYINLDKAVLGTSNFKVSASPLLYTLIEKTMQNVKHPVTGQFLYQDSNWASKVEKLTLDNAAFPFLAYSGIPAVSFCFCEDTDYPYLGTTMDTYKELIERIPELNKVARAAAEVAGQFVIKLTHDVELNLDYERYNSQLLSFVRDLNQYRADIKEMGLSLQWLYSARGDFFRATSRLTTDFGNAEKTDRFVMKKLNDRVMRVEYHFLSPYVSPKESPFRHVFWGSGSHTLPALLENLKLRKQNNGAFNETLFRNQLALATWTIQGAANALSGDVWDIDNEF

**Q.** How did the Kd turn out when “OKT9 control anti-TfR1 antibody (mouse IgG)” was run?
**A.** 0.536 nM

**Q.** What about the kon of the same substance?
**A.** 774000 M⁻¹ s⁻¹
